For the test, the target named is full-length wild type MOKV G (MOKV G WT) (Mokola virus) (UniProt P0C572). The experiment in a line: negative staining electron microscopy.

Sequence of full-length wild type MOKV G (MOKV G WT) (P0C572 20-522): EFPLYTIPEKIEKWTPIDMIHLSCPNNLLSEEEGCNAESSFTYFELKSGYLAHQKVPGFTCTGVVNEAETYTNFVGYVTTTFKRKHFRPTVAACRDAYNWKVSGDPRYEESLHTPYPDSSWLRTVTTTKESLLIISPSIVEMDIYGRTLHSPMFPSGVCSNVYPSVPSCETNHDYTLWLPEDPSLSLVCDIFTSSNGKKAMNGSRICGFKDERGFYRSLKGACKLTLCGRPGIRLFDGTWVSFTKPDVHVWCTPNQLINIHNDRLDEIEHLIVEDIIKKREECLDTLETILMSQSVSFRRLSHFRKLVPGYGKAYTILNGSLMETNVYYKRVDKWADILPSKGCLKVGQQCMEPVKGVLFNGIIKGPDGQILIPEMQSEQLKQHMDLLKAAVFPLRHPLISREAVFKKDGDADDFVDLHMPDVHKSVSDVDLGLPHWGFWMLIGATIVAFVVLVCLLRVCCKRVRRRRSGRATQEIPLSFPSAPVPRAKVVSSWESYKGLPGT

For “full-length wild type MOKV G (MOKV G WT) (from UniProt P0C572 20-522) (natural protein)”, the stoichiometry N turned out to be 3.

Source of the values: article PMC7082061 (PLoS Pathogens, 2020).
